# Assay results from article PMC6989304.
# Molecular target: Pinhead-HA (secreted, in conditioned medium of HEK293T cells) (zebrafish)
# Experiment: reducing and non-reducing SDS-PAGE with immunoblot
substance,measurement,value
"Pinhead-HA (secreted, in conditioned medium of HEK293T cells) (ligand)",stoichiometry N,2
